Measured values: the DeepSol protein solubility set

assay: soluble on expression in E. coli; label from the status in PepcDB or PDB records

Sequence	soluble on expression in E. coli
MGSDKIHHHHHHMFIINELNKIVNEEVISFHMPGHKKGQVYKKLGYKDILKNLYKMDTTEILGTDNLHFPEGIIKNSQKKASRVFKSDYTCYLVNGSSCGIQSAIMSVCSPKSKIITNRDCHQSVINGCILGDIDIEYVPCEISEETNVLKGISISNVIDIIDKNLDAKAVLLTYPTYYGMTYDLEYICNYAHSKKMVVIVDEAHGAHLGLSERLPKTALEQGADIVVQSTHKTLPAFTQSSMIHIQGDRVDIDKILNMLRITESSSPSYLLLSSLELAVDIYENKGKELMEELLNNIITFKNKVDSNINIYDTNDKTKIFISSKNMGLTGYELENILRNKYNIQVELSNYYGVLLICTIGNTAEDFSSLETALNNVVKEDFKFEKLENKKYPVVIPKKILTPREAFYKTKKSVKIYDSIGKVCGECIVPYPPGISVISPGEVISKEIIDYLMFCHSKGMIVSGLKDVDLNFIQVIDLEDI	not soluble
MTSWADIQKLASDLQRVQLSQSSKKLSEVNCIEVLQKLIASHRIDVVYTRDGHSYVTKNHLETEIKNECIAAGGRASLTDIAVALNIDFDHIEKTSRLIVSTDDEFTISNAEIFATEYVHRLRNELRTLLDEQGNQTTAALCKHWNLSSELLQSLLIEKLGSSDFQGVVDGDTIYTSSFLNARQLVLRAILIALTKITPISTIQKRVGLTPKRFWIAFENLQSLGEIPGTLIGSRTSPSCSYRPMMYDHLVKSCVLNQYRQNEFLEISTLKTLGVDAKPALEEVLGSSEFKKLVSMRSMFMTKELMDQCINAVQEDLQKSGISDVHLALQSLNLPLDTADEDEIGSKVANVEKDSHFAEGFVFKGAVLTEALRSIDKLLDVRAHEEVDRLEAEKKKQGGAKAAVKVQEETDDWGDGKKGGKGGKKNAKSVKGGSKSSAPSTSSNLSANISINSEELEIWLRESQSVPEEILSVIVEKLNQETTTLLRKKVQDIQAHQLVASVANSKKSLSAIGDKCRQLYDSFNTFETATSTFADPLGSDLRQYLLKTVGNEIALALLSYVMGVDNAHQLKEKQREETIENLPEMLRDPIRSVFASLKSTDDDALDKFHDAVYNCSAPSATSLALKKVDKKGRAEVGAKITAELHEQLCSQTEPATTLLLSVLYILAKAGRPTTASGKFVSQLVAQIKDLCPENVFDLLQACQKGVVTCIKNKGDEVAKEMLVNDISSLKQSIMP	not soluble
MGSDKIHHHHHHMDYTPRLQPARLIKRYKRFLADVVTPEGETLTLHCANTGAMTGCATPGDTVWYSTSDNPKRKYPQSWELTETQQNHWICVNTLRANTLLYEALLENRIEELAGYSDIKTEVKYGTENSRIDLLLQAPDRIDCYIEVKSVTLLQHECGYFPDAVTLRGQKHLRELQQMVSNGKRAVLFFAVLHSGIQQVSPARHIDSRYAELFIEAQQAGVEILCYGSTLCPDGIKLTNKLPLLG	not soluble
MAKRVYLLSEARGLSRDLLGGKGHGLAEMAAAGLPVPPAFIVTTEACRQYLKAGEVPGLWGEVRAGMAALEGLTGKRFGRGEGKAPPLLVSVRSGAPVSMPGMMDTVLNLGLTLEGVEALARATGNPRFAWDSLRRLLAMYGEVVLGEGPEVFEGMLSALKAERGVGTDAALGPEDLEELAYRYLRHLEARGTPFPLDPWAQLQGAIEAVFRSWQNPRARTYRRIYGIPEDLGTAVVVQAMVFGNLGEDSGTGVGFTRNPATGEKGLYGEYLRNAQGEDVVAGVRTPEPLERLKGYAPGLYEELLQVAERLERHFRDMQDFEFTVERGRLFLLQTRAGKRTAQAAVRIAVEMAEEGLISREEAVMRVEANALPGLLRPSVDRDQAPRPLLKGLPASPGAAVGHAAFTNEAVERFHAQGLPAVLVRPETTPEDITGMYLAKGILTARGGLTSHAAVVARGLGVPAVVGAEALRVFPGEGRALAEGVEIREGDLLTLDGGTGEVYLGAVPLVEAGGEALLEKLLSWAEPHRRLGVRANADTPEDAQRARAFGAEGIGLCRTEHMFFREDRLPWVRRLILAETPEEEALALERLFHFQKEDFKEILRAMDGLPVTVRLLDPPLHEFLPPLEALARRAEEGDEEAGRLLRRAEALKEANPMLGFRGARLLLLRPGVFRMQLRALLEAARELKEAGHDPRPEVMVPLVADPKEVERARALAEELFREYGPIPFGTMVETPRAALLAAEIAPLVDFFSFGTNDLTQMAFGLSRDDAGKFLPRYVEEGLFPFDPTERLDEKGVGRLLRMAAEEGRKANPRLKLGLCGEHGGEAGSVRFVADLLDYTSASPFRVLTARLAAAQAGLSRALKPA	soluble
MLTSGETVNVVLDFTKCTSTDDQKKPGMMRGDLRISAFLIRPDNSISFSDEHFTITTMDKEPIYQFLRYSLKPDETASFTMTTLSMPEKAHKGEVIAYNCKFATALEHHHHHH	not soluble
MGSDKIHHHHHHMPWLRFCDRDRSVHMLVAMLDLTREKAEQVMRRGPWLASMTEPFRTELLRHAHLQKFAPDQVVYRHGDAVGGMYGLVAGSLTINSAPPDAASRLIHLGMPGAWTGEGPFLTGQPRRVELRALGGAWMMHVPLDALEQMMARDPGVSRAIAMNTVFTVDVLLRIIHDLQKRAVGRRIASVLQRASWVGDMPIPLSQTDLGIMANASRQQVNTAMQRFARAGWVSYTYRSVTVSNSQALRRFSEGDGSEW	not soluble
MKIFIVGSTGRVGKSLLKSLSTTDYQIYAGARKVEQVPQYNNVKAVHFDVDWTPEEMAKQLHGMDAIINVSGSGGKSLLKVDLYGAVKLMQAAEKAEVKRFILLSTIFSLQPEKWIGAGFDALKDYYIAKHFADLYLTKETNLDYTIIQPGALTEEEATGLIDINDEVSASNTIGDVADTIKELVMTDHSIGKVISMHNGKTAIKEALESLLEHHHHHH	soluble
MIAKTDSDIRHVTPSGGNVFADLGFHKQDAEKFYADSLNEIENTLAIKQQLMEEITLWITQNQMKQAEVATVLHISRPRVSDVVNKKCSKFTIDALVNMLSRIGKPVRVMVGP	not soluble
ADERLQFTATTLSGAPFDGASLQGKPAVLWFWTPWCPFCNAEAPSLSQVAAANPAVTFVGIATRADVGAMQSFVSKYNLNFTNLNDADGVIWARYNVPWQPAFVFYRADGTSTFVNNPTAAMSQDELSGRVAALTS	soluble
LVFDEEGNSSWIATDTVKVAASRPVELNPFYIDTVYEVSGKKIAYMVYNEFSTGPNNQATDTEYREQMKQIFARFKGQSPDAFILDLRYNPGGYLSCATDLGSYLAPAADLGKVFCTTLYNDISDPQKIDFPLNTGLASENLNLSKLYVLTSKFTASASEAVINCLRPYIGTENVVVIGETTVGKNVAMEPYQDERYNFILWPVVAYVLNSAGQANYVNGITPDFTLSER	not soluble
MGYLNNVTGYREDLLANRAIVKHGNFALLTPDGLVKNIIPGFENCDATILSTPKLGASFVDYLVTLHQNGGNQQGFGGEGIETFLYVISGNITAKAEGKTFALSEGGYLYCPPGSLMTFVNAQAEDSQIFLYKRRYVPVEGYAPWLVSGNASELERIHYEGMDDVILLDFLPKELGFDMNMHILSFAPGASHGYIETHVQEHGAYILSGQGVYNLDNNWIPVKKGDYIFMGAYSLQAGYGVGRGEAFSYIYSKDCNRDVEILEHHHHHH	not soluble
MSRTVIRAQPFFLQAAPGSREQLANPRGFTTFVLEASWSTGLRLDTYVTRGLGDPEQIMREEFQGQYVFWDTDEYLDLIRWMRHYNVSHPGRPTLRFVGNDLGYPGPEAFDQVTSYVTAHRPGVAERIATLYAGLRPARSASAGAWMGQQLTKDLASRRAEAARAERALTLLCASGRPRGSAGRAYNWAVQNATAVAQSFTGYAFPDEEFPERMRYRDQAMADNTAWWLAHTNGRILLASNNGHVAYTSDNPQEFPEPVGAFLRKKLGRKYVSVGLTFSEGSLNALPDFTAGQPQKYAVDPAPAGHNEHTLDQVRHRDFALDLRTAPPAARAWLDTARPTRSYGLYWSDQDPETALGRSYDIVIHLHRVEAARLWAFTSVKDGQSYRLEHHHHHH	not soluble
MGSDKIHHHHHHDETVYDKLPADDFGQSTAELNALIGNSHNTMKKFWTEYMHLSECSGSMAVTPTRRGGDWYDGGQYREIYMHTWTSQTSRVKSAWKAATEAIGTCNEAIRKLQNSEILTEEEKAQDVADLRGVRAFWIYVMMDYWGNIPLLTEFHPTDKVFPGNSSRQEVFDWLIQEVEEIKDICPPATTENYGSFTQGAAYSLLAKLYLNAEAWGVTFSGNAYQKVIDNCDKVMAMGYILEPNWKDNFSVTNENSKEAILAATFSSSDTGNDGNVKNELHNNTLHYKDYLSLGITASGTWNGICAQPEYVRLFDEEDARLDGTFLTGLMIDKSTGKPIMTDHNNELNHTIDVNMIPGMEYDGTNWSAVEQHDGARCFKWEFASDLTSSMGNDFHIFRLADIYLMKAEALLRGGGSVSEATALVNTIRERGYGNSDHNYATVTLKEVQLERRLELAWEVYSRQDDIRFGCFTTGMWPQSNCERKADDYLKLLPVSQDAWQVNPNLKQNPGYAAFSK	not soluble
MGSDKIHHHHHHVNQVSARRPVTVTGEDWFEIAKTLEISSESVVQDFLRDNPGFAADLVIPKRVTIETVFGCNARCGMCVIDQPTERPKGTMPLEQFKAIVDKLVPYRDRIEMMDFFALGEPLIDTHLFERIRYVKAKGFRRLAFATNAHLLTAAKRRDLLESGIDTVIFSIDGITKATHESIRERVNFDKVMENVQAVIRERDQGDFKTRFVVRFVRQAKNRHEWEEYKAFWSSRISPDRNDVVTSYDMHTWGGQVANKDDVIGGEQQRDEMVERLPCHHAFDKLTILADGSIPLCSEDILEPAYGFGKIGDQDPIQVFNSERLRAMRRLHLAGRKALLKGCGECTLLYSEPRRGSD	not soluble
EIKDTYNIGELSPGMTATFEGEVISALPIKEFKRADGSIGKLKSFIVRDETGSIRVTLWDNLTDIDVGRGDYVRVRGYIREGYYGGLECTANYVEILKKGEKIES	soluble
MFSWQEFTERDVSLFTENVIRSLINTKYNVICHIEDYTPPQFDSFLQLSACYNIGEKTEDEVINSDGIRWSKKKDSLGSEMKPRKNTISVDGRTFRRINCSSPPPATNLFKKYMAIEEATKLCWILFLGSSHDVIDYTSLKVARKKLSKEEALMIRKMLEGRTVLMVYQMLGGKYSKRQIKDQQRNVLTTVKLNRGPRPVTNPADLCDLSRMFSHAYHSSHRNSIRFIYFNKSMLGLFLKSCPTYTEITTYRNRMDGIENWRTADLNKHLADCKVYTCGGIDTRVASIIELDTTFGLSNGYISVTTGFIPVFRTRQHTKSSPSKLRHVVLGFMFHSSKHKSHFEDFSGRLNEILQELDPKKIKKIQL	not soluble
MKTAEAAKGRWPEILEHFDLPPITGKNHYRGECPVCGARGKFRIDDRDGAGTWICVCGSGDGMKLVTLTQGKPFNEICTEIDRLIGNDYQRVKIPVNSSATSLRKRVLSKFSKLEALRGTSGAAYLNSRGIFNLPAEAIRFNARQRHNGCVFQSLYSLATDDKGELCYLHQTLLDGAKKADIGSSSKRLKSLQEDNYLDHARSVAIRMFPVASTLGIAEGIETALSAHQIYKVNTWATINSGFMKKFRVPAGVLHLIIFADRDENSATGLAAAYECAHANLMAKNDLQRVSVYWPDHGDFNNMLMNGDQVRELVFHKKKVAA	not soluble
KDYDAYLSYTKVDPDQWNQETGEEERFALEILPDMLEKHYGYKLFIPDRDLIPTGTYIEDVARCVDQSKRLIIVMTPNYVVRRGWSIFELETRLRNMLVTGEIKVILIECSELRGIMNYQEVEALKHTIKLLTVIKWHGPKCNKLNSKFWKRLQYEMPF	soluble
MRSRHDTYNNDCDRTLVIMAQRTLAYIVSRRQSASGFTTTARARRWHV	not soluble
MGSDKIHHHHHHMINHHPKFELIQAFVNGDLPASLSAGIAIHADMCPVCQQTIAQFTEQVAENSFEEEYLDRFIIDDNEALEAIATIDFDHMIDNIVESSDIAVVVPKVEKTVSFNDTTYTLPAALNSMEMGKHAQIGKLTRARIQLNENEIHSSLLHIQPGGGVPEHTHKGFELTVLLAGSFHDESGEYVKGDFIMLDSSHQHHPISSNGCLCYTVANDALHFTHGINKLLNPIGSFIY	not soluble
